Test results as given in paper PMC9649601 (2022).

Target: ubiquitin conjugating enzyme E2 I (UBE2I), recombinant (UniProt P63279 1-158)
Experiment: ITC

Sequence of ubiquitin conjugating enzyme E2 I (UBE2I), recombinant (P63279 whole entry): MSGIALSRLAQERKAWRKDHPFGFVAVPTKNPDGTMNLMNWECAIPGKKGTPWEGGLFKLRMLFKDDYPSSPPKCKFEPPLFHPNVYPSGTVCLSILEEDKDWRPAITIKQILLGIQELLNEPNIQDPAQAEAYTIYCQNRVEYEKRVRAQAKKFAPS

B1: lamin A (LMNA), wild type, recombinant (natural protein)
chain: METPSQRRATRSGAQASSTPLSPTRITRLQEKEDLQELNDRLAVYIDRVRSLETENAGLRLRITESEEVVSREVSGIKAAYEAELGDARKTLDSVAKERARLQLELSKVREEFKELKARNTKKEGDLIAAQARLKDLEALLNSKEAALSTALSEKRTLEGELHDLRGQVAKLEAALGEAKKQLQDEMLRRVDAENRLQTMKEELDFQKNIYSEELRETKRRHETRLVEIDNGKQREFESRLADALQELRAQHEDQVEQYKKELEKTYSAKLDNARQSAERNSNLVGAAHEELQQSRIRIDSLSAQLSQLQKQLAAKEAKLRDLEDSLARERDTSRRLLAEKEREMAEMRARMQQQLDEYQELLDIKLALDMEIHAYRKLLEGEEERLRLSPSPTSQRSRGRASSHSSQTQGGGSVTKKRKLESTESRSSFSQHARTSGRVAVEEVDEEGKFVRLRNKSNEDQSMGNWQIKRQNGDDPLLTYRFPPKFTLKAGQVVTIWAAGAGATHSPPTDLVWKAQNTWGCGNSLRTALINSTGEEVAMRKLVRSVTVVEDDEDEDGDDLLHHHHGSHCSSSGDPAEYNLRSRTVLCGTCGQPADKASASGSGAQVGGPISSGSSASSVTVTRSYRSVGGSGGGSFGDNLVTRSY
Q: How did the Kd turn out when B1 was run?
A: The Kd was 373 nM.
